What all share (assay): two-hybrid library CCNG1;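 also: natural log of median RNA to DNA barcode read ratio; higher means stronger binding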
In one experiment the target is T1, 4H2619-bA.
T1 chain: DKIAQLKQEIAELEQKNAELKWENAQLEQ

The next experiment deals with T2, 4H2691-bA.
T2 chain: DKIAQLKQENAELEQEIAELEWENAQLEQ

The next experiment deals with T3, 4H2745-bA.
T3 chain: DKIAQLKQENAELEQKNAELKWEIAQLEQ

For a further experiment, the target named is T4, 4H3070-bA.
T4 chain: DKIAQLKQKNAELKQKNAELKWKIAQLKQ

The target in another experiment is T5, 4H3129-bN.
T5 chain: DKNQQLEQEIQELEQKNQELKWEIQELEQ

The target in a further experiment is T6, 4H342-bA.
T6 chain: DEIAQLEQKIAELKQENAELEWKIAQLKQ

The target of the next experiment is T7, 4H344-bA.
T7 chain: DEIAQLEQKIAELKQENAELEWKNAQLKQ

The next experiment concerns the target T8, 4H363-bA.
T8 chain: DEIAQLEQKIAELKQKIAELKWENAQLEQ

A further experiment concerns the target T9, 4H3632-bA.
T9 chain: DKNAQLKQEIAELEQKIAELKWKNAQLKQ

A further experiment deals with T10, 4H3907-bA.
T10 chain: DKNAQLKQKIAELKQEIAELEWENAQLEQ

The target of a further experiment is T11, 4H3961-bA.
T11 chain: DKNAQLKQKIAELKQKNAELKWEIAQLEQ

Another experiment deals with T12, 4H470-bA.
T12 chain: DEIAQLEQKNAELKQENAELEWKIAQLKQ

The target in another experiment is T13, 4H496-bA.
T13 chain: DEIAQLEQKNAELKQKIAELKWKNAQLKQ

For another experiment, the target named is T14, 4H687-bA.
T14 chain: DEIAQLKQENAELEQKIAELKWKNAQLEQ

For the next experiment, the target named is T15, 4H717-bA.
T15 chain: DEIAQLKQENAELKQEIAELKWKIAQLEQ

For another experiment, the target named is T16, 4H72-bA.
T16 chain: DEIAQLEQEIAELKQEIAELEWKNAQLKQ

Another experiment concerns the target T17, 4H754-bA.
T17 chain: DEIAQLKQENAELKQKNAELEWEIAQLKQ

For a further experiment, the target named is T18, 4H797-bA.
T18 chain: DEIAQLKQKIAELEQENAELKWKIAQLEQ

The next experiment concerns the target T19, 4H883-bA.
T19 chain: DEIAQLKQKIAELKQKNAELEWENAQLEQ

For another experiment, the target named is T20, 4H908-bA.
T20 chain: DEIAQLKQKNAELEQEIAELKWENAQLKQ

For a further experiment, the target named is T21, 4H918-bA.
T21 chain: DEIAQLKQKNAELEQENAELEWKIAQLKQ

The target of another experiment is T22, 4H953-bA.
T22 chain: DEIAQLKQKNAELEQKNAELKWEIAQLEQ

The next experiment addresses T23, 4H967-bA.
T23 chain: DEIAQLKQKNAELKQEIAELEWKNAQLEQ

The target in another experiment is T24, O13-bH.
T24 chain: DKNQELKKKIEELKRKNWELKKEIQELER

A further experiment concerns the target T25, 4H2442-bA.
T25 chain: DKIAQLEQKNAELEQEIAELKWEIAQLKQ

In the next experiment the target is T26, 4H2576-bA.
T26 chain: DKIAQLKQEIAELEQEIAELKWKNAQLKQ

The next experiment has as its target T27, 4H2618-bA.
T27 chain: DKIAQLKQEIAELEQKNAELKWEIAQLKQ

The next experiment deals with T28, 4H2667-bA.
T28 chain: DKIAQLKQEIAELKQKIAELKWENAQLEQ

The target in the next experiment is T29, 4H2729-bA.
T29 chain: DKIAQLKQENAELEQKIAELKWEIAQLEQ

Another experiment concerns the target T30, 4H3112-bA.
T30 chain: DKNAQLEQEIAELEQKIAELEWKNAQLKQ

The next experiment deals with T31, 4H3185-bA.
T31 chain: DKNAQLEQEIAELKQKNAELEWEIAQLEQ

Another experiment has as its target T32, 4H331-bA.
T32 chain: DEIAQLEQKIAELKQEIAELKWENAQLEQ

A further experiment deals with T33, 4H3354-bA.
T33 chain: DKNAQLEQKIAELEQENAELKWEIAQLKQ

A further experiment concerns the target T34, 4H338-bA.
T34 chain: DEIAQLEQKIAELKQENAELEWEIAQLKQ

In another experiment the target is T35, 4H3427-bA.
T35 chain: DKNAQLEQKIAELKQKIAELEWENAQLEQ

Another experiment deals with T36, 4H3497-bA.
T36 chain: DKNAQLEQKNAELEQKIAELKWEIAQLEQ

The next experiment addresses T37, 4H3782-bA.
T37 chain: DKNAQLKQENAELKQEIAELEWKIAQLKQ

The next experiment concerns the target T38, 4H3855-bA.
T38 chain: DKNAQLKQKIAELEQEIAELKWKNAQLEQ

For another experiment, the target named is T39, 4H4001-bA.
T39 chain: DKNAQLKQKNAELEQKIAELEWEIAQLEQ

For another experiment, the target named is T40, 4H454-bA.
T40 chain: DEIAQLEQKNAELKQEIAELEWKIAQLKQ

The target in the next experiment is T41, 4H568-bA.
T41 chain: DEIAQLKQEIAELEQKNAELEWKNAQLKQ

The target in another experiment is T42, 4H607-bA.
T42 chain: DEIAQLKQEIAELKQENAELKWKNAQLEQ

The target in another experiment is T43, 4H1845-bA.
T43 chain: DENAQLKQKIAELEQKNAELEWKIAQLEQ

A further experiment addresses T44, 4H2610-bA.
T44 chain: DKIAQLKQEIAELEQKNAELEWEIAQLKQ

The target of another experiment is T45, 4H2697-bA.
T45 chain: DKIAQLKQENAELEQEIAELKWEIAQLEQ

In another experiment the target is T46, 4H3010-bN.
T46 chain: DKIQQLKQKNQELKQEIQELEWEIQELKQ

Another experiment has as its target T47, 4H3189-bA.
T47 chain: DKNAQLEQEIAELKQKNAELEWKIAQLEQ

The target in another experiment is T48, 4H3606-bA.
T48 chain: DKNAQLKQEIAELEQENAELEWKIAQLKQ

In another experiment the target is T49, 4H370-bA.
T49 chain: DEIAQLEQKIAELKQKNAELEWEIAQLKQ

The target in a further experiment is T50, 4H3843-bA.
T50 chain: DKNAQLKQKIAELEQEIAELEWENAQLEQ

For the next experiment, the target named is T51, 4H462-bA.
T51 chain: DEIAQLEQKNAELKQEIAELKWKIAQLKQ

The next experiment deals with T52, 4H607-bN.
T52 chain: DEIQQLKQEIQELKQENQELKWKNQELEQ

As for DKIAQLKQEIAELEQKNAELKWENAQLEQ [4H2619-bA], the interaction score is 0.00432 with 4H2619-bA; -0.41 in the experiment with 4H2691-bA; -0.393 in the experiment with 4H2745-bA; -0.983 with 4H3070-bA; -2.48 in the experiment with 4H3129-bN; 1.56 in the experiment with 4H342-bA. Besides, the interaction score with 4H344-bA was 2.12; with 4H363-bA it was -0.409; with 4H3632-bA, -1.09; with 4H3907-bA it was -0.505; with 4H3961-bA, -0.981; with 4H470-bA, -0.832. This molecule also came in with an interaction score with 4H496-bA of -0.573.

Regarding DEIAQLKQENAELEQKIAELKWKNAQLEQ [4H687-bA], the interaction score with 4H687-bA was -1.03; with 4H717-bA, -1.32; with 4H72-bA, -0.595; in the experiment with 4H754-bA, -0.491; with 4H797-bA it was -0.624; in the experiment with 4H883-bA, -1.57. Moreover, the interaction score in the experiment with 4H908-bA is -0.749; with 4H918-bA, -0.947; in the experiment with 4H953-bA it was -1.51; with 4H967-bA, 1.07; with O13-bH it was 1.07.

On to DKIAQLEQKNAELEQEIAELKWEIAQLKQ [4H2442-bA], for which the interaction score in the experiment with 4H2442-bA is 1.33; in the experiment with 4H2576-bA it was -0.202; with 4H2618-bA, 0.238; in the experiment with 4H2667-bA it was -0.365; with 4H2729-bA, 1.52; with 4H3112-bA, -0.0125. For the same molecule, the interaction score is -0.212 with 4H3185-bA; -1.21 with 4H331-bA; -0.829 with 4H3354-bA; -0.0859 with 4H338-bA; 0.0308 with 4H3427-bA; 1.63 with 4H3497-bA. In addition, the interaction score in the experiment with 4H3782-bA was -1.13; in the experiment with 4H3855-bA, -0.595; with 4H4001-bA it was 0.5; with 4H454-bA, 0.831; with 4H568-bA, -1.89; with 4H607-bA, -1.4. In addition, the interaction score is -0.225 in the experiment with 4H687-bA; -0.902 with 4H717-bA; -1.46 with 4H72-bA; 0.0444 with 4H754-bA; -1.24 with 4H797-bA; -1.15 in the experiment with 4H883-bA. Besides, the interaction score with 4H908-bA was -0.745; with 4H918-bA it was -1.46; with 4H953-bA, -1.68; with 4H967-bA it was -1.64.

For the molecule DENAQLKQKIAELEQKNAELEWKIAQLEQ [4H1845-bA], the interaction score with 4H1845-bA is 0.564; with 4H2442-bA, -0.649; in the experiment with 4H2576-bA it was 0.69; with 4H2610-bA it was -0.596; with 4H2618-bA, -0.329; with 4H2667-bA, 0.247. The interaction score was -0.601 with 4H2697-bA; -0.636 with 4H2729-bA; 0.0715 with 4H3010-bN; -0.795 in the experiment with 4H3112-bA; -0.124 in the experiment with 4H3185-bA; -0.547 in the experiment with 4H3189-bA. Also, the interaction score with 4H331-bA is -0.344; with 4H3354-bA it was -0.823; in the experiment with 4H338-bA, -1.75; in the experiment with 4H3427-bA it was -0.783; with 4H3606-bA, -1.46; in the experiment with 4H370-bA, -0.74. The interaction score is -0.678 with 4H3782-bA; -0.572 with 4H3843-bA; -1.1 with 4H3855-bA; -0.341 in the experiment with 4H4001-bA; -0.0982 with 4H454-bA; -0.986 in the experiment with 4H462-bA. Also, the interaction score was -0.306 in the experiment with 4H568-bA; -1.7 with 4H607-bA; -0.945 with 4H607-bN; -0.612 with 4H687-bA; -0.827 with 4H717-bA; -0.517 with 4H72-bA. The interaction score was -0.405 with 4H754-bA; -0.424 with 4H797-bA; -0.795 with 4H883-bA; -1.42 in the experiment with 4H908-bA; -0.752 with 4H918-bA; -1.23 with 4H953-bA. In the experiment with 4H967-bA, this molecule returned an interaction score of -0.617.

Values taken from article PMC10397247.
